Laboratory results taken from patent US20060034848A1 (published 2006).

Target: T1, LC-myc with the second NPxY motif mutated to APxA (UniProt Q07954 3944-4544, limits assumed)
T1 construct: domain: light chain (LC); The substitutions have no printed residue numbers; also called 2nd NPxY mutant; not shown: C-terminal myc tag
T1 sequence (looked up): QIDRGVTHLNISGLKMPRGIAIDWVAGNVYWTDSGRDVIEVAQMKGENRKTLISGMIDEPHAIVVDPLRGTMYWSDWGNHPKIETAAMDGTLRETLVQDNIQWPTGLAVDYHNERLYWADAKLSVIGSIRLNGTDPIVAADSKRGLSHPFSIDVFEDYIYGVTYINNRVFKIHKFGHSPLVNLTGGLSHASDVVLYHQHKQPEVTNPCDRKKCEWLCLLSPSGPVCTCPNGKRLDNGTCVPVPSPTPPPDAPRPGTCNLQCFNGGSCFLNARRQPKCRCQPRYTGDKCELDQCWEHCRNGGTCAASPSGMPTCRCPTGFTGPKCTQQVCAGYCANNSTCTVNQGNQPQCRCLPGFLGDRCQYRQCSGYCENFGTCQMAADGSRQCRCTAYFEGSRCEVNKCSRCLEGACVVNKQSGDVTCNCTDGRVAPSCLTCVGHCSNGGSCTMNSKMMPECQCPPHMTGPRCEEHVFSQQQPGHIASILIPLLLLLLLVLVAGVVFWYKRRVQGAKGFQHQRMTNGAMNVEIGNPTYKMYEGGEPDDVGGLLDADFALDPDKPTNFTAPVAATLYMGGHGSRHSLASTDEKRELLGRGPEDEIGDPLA
Test: FLIM/FRET in cells

B1: BACE (wild type; tag of the construct not stated at that place) (enzyme, human, UniProt P56817 46-501, looked up)
chain: ETDEEPEEPGRRGSFVEMVDNLRGKSGQGYYVEMTVGSPPQTLNILVDTGSSNFAVGAAPHPFLHRYYQRQLSSTYRDLRKGVYVPYTQGKWEGELGTDLVSIPHGPNVTVRANIAAITESDKFFINGSNWEGILGLAYAEIARPDDSLEPFFDSLVKQTHVPNLFSLQLCGAGFPLNQSEVLASVGGSMIIGGIDHSLYTGSLWYTPIRREWYYEVIIVRVEINGQDLKMDCKEYNYDKSIVDSGTTNLRLPKKVFEAAVKSIKAASSTEKFPDGFWLGEQLVCWQAGTTPWNIFPVISLYLMGEVTNQSFRITILPQQYLRPVEDVATSQDDCYKFAISQSSTGTVMGAVIMEGFYVVFDRARKRIGFAVSACHVHDEFRTAAVEGPFVTLDMEDCGYNIPQTDESTLMTIAYVMAAICALFMLPLCLMVCQWRCLRCLRQQHDDFADDISLLK
notes: whole, on cells; Used for the sentences that say only BACE or WT-BACE (NPxY mutant FLIM, Fe65 and mDab1 FRET, shedding, CTF and luciferase assays); also called WT-BACE
B1: binds.
